From patent US11648290B2, “Cartilage-homing peptides” (FRED HUTCHINSON CANCER CENTER, priority 2015, dated 2023)

What was measured:
trypsin = target: T1, trypsin (Bos taurus, UniProt P00760); assay: Peptide resistance to trypsin digestion (RP-HPLC); type: in vitro ADME
T1 construct: gene PRSS1
T1 sequence (P00760 24-246): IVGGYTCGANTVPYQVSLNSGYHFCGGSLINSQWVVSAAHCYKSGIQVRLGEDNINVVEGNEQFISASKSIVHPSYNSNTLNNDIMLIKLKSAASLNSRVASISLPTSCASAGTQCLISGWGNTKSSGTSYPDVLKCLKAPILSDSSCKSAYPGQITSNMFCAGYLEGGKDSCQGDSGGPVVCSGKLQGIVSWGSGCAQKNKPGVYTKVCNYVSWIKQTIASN
Protocol: Various peptides were suspended in 500 μl of ddH2O at a stock concentration of 2 mg/ml. Reactions were prepared with 12.5 μg peptide and 5 μg trypsin in 25 mM Tris/75 mM NaCl buffer (pH 7.0) and incubated for 30 minutes at 37.5° C. Reactions were quenched with 5 μg of soybean trypsin inhibitor and 10 mM dithiothreitol (DTT). Reversed phase HPLC (RP-HPLC) was run on samples using an Agilent 1260 HPLC equipped with a C-18 Poroshell 120B column. Sample were analyzed by a gradient method with a mobile phase of Solvent A (water with 0.1% TFA) and Solvent B (acetonitrile with 0.1% TFA). Solvent B was ramped up from 5%-45% of the mobile phase over a period of 10 minutes.

[1] = Temperature stability of peptides (RP-HPLC); type: physicochemical
Protocol: This example illustrates peptide stability at high temperatures. Peptides were first suspended in 500 μl of ddH2O to a stock concentration of 2 mg/ml. Reactions were prepared by adding 6.25 μl of peptide from the stock solution with 95 μl ddH2O and incubated at room temperature, 70° C., or 100° C. for one hour in a Thermocycler. RP-HPLC was then run on samples using an Agilent 1260 HPLC equipped with a C-18 Poroshell 120B column. Sample were analyzed by a gradient method with a mobile phase of Solvent A (water with 0.1% TFA) and Solvent B (acetonitrile with 0.1% TFA). Solvent B was ramped up from 5%-45% of the mobile phase over a period of 10 minutes.
Peptides of SEQ ID NO: 28 and SEQ ID NO: 483 were analyzed by HPLC after incubation at room temperature (25° C.), 70° C., or 100° C. for one hour.

GSISIGIKCSPSIDLCEGQCRIRKYFTGYCSGDTCHCSG [SEQ ID NO: 483]
Resistance to degradation by trypsin (trypsin; 12.5 ug peptide, 5 ug trypsin, pH 7.0, 30 minutes at 37.5 C): partially resistant to degradation by trypsin
Resistance to reduction by DTT (FIG. 54) (trypsin; 10 mM DTT): partially resistant to reduction by DTT
Stability after heat incubation (HPLC) ([1]; 70 C for 1 hour): resistant to heat-induced degradation
Stability after heat incubation (HPLC) ([1]; 100 C for 1 hour): underwent various degrees of degradation
